Results taken from paper PMC2807033 (2009).
No end group written: not given here. *: point of attachment. Biotin = O=C1N[C@H]2[C@H](CS[C@H]2CCCCC(=O)*)N1

Biological target: E. coli replicative helicase DnaB, purified (E. coli, UniProt P0ACB0 1-471)
Experiment: SPR

Chain of E. coli replicative helicase DnaB, purified (P0ACB0 whole entry): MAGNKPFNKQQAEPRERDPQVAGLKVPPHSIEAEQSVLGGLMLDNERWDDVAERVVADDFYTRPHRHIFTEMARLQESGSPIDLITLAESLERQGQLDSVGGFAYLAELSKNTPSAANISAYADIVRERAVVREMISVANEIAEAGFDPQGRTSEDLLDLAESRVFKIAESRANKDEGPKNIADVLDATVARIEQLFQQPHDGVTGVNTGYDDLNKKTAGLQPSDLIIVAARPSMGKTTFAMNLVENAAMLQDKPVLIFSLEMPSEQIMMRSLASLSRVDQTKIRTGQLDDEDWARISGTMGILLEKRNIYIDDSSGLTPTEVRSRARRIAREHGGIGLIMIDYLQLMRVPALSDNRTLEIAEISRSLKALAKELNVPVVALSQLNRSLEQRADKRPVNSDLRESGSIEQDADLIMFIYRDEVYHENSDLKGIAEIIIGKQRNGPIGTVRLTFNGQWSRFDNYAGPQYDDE

B1: C33^Rep peptide (synthetic peptide corresponding to the C-terminal 33 residues of Rep) (peptide)
peptide: Biotin-EQERKVVSAEERMQKGQSHLANLKAMMAAKRGK
Kd: 44 nM
